# Measured values published in the supplement of paper PMC12042874.
# ± gives the uncertainty stated by the source.
# Assay: amyloid nucleation score (Sup35N fusion, yeast selection) (log enrichment); library NNK2; higher = more nucleation; inactive = no reads after selection
# Outline: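 Nucleation score: DiMSum log enrichment of output over input reads, centred on the mode score of non-aggregating sequences. Only sequences with at least 100 input reads were kept. Reads came from Illumina sequencing of plasmid inserts before and after 7 days of growth at 30°C without adenine and uracil, in psi-negative yeast expressing Sup35N fused to peptides of 20 random codons after 24 hours of induction with 100 μM copper sulfate.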
row,Substance,amyloid nucleation score
1,DYIDKPELLSVLGTRQMKCF,0.241 ± 0.35
2,CTIIFNLLLAD,7.396 ± 0.055
3,EAWADGSIMYSYTRPDGDKV,0.421 ± 0.24
4,SYYFLLLFVQT,-0.017 ± 0.76
5,RFKSIWAVNVIWNDYVADNG,7.835 ± 0.077
6,EYHLDHDFSPMGMAPRH,0.049 ± 0.63
7,SVWTFLTCI,0.906 ± 0.46
8,NFRRLVMGSRNYSLFCGDKE,inactive
9,CGKYSS,7.602 ± 0.041
10,EGTCPSSGNILSWKSFCVVG,-0.519 ± 0.25
11,FFQVPSSNLVSLTDRLYSLG,-1.16 ± 0.5
12,ERRRFRVDRKVLAFFYVSGT,0.046 ± 0.37
13,PWIAGCNMRTNWFNILNCPV,-0.583 ± 0.38
14,LLINDKCPYERMAGQWLFGS,0.268 ± 0.65
15,CMVRLKPDFITALRLSLRGR,inactive
16,WFLCWYSTPTLGCCKKEGSA,0.056 ± 0.33
17,RNCRDNYYSWRFKHLNRDRD,-0.076 ± 0.61
18,FMLRICPGYAKGRCISWHSR,0.396 ± 0.46
19,TGFGLMHGLAGKCCLRFFIT,-0.116 ± 0.35
20,KFMARDLRTYFIALQPRCKD,6.614 ± 0.05
21,SMLFRIRSLNVCSFAGLMRQ,2.37 ± 0.1
22,GGKFSVIGVGHLLDGEH,1.14 ± 0.15
23,MVSSIGILASWYTSIVWFGY,-0.191 ± 1.1
24,VSLMFSGVIWAIWLMLFGVG,1.13 ± 0.61
25,MRLEWNRGLLCDDSYARTAR,0.83 ± 0.41

row,Substance,amyloid nucleation score
1,VKMFVF,-0.221 ± 0.79
2,NCQYFMRGFSVISSTFGMLS,-0.395 ± 0.76
3,GETLSTDYLWQPTHA,0.877 ± 0.58
4,IFSRIDTQCGMMSISQQ,-0.364 ± 0.24
5,TRWARYALNVIEHWQLSWVK,0.145 ± 0.63
6,CSIMFIG,0.858 ± 0.47
7,DYNSNMSFSRLCTRVTCHSM,inactive
8,YSGFIMWYLFDDTAQIP,-0.781 ± 1.1
9,FWKSWHTPRALAKNSPSAFL,-0.779 ± 0.64
10,KIRNSGG,0.747 ± 0.56
11,WGNHSYLTVYRFFIRNWDVI,-0.81 ± 0.55
12,NGKNILD,inactive
13,HDPRIYW,0.441 ± 0.27
14,FLECTSNIDVAMSPWLTLLN,-0.505 ± 1.1
15,ALPITQNCC,-1.07 ± 0.44
16,RGPTAHTFSARENP,-0.312 ± 0.45
17,TDFFCLTIFFNVEHVISKCI,2.14 ± 0.17
18,PVNWGQGITTKALWYMTLRF,-0.417 ± 1.1
19,RKLLYCCEVATWCRGETSER,4.33 ± 0.089
20,SYVFAPWFLVILPKSISMD,4.58 ± 0.079
21,MVYNQCRSDL,-1.04 ± 0.23
22,LYMVSPYRAKIRSQAFRLVT,-0.388 ± 0.33
23,RATKYFLSFCSLKFKFCHYF,-0.658 ± 0.32
24,IPPNGPVYCRYHNRQVCRAG,0.203 ± 0.34
25,QQMSIHRYADGVFELGIPVM,0.11 ± 0.54

row,Substance,amyloid nucleation score
1,RVERLWVLHSKATQRRM,0.063 ± 0.79
2,FFCPRGRAFLSSRM,-0.788 ± 0.79
3,HEYLRGRGTFGNIQDYNKLM,-0.447 ± 1.1
4,LNVLISYMHRVWRYIVSAR,0.362 ± 0.35
5,LDILIAQALEVFSDQYCNY,-0.992 ± 0.42
6,LFLVTVFRCVFFSQGI,-1.9 ± 1.1
7,LTTWNGCSDEC,-0.557 ± 1.1
8,LDRFLSMRLFLPYVTNLRNH,-0.431 ± 0.64
9,FCSPCSFLINSY,6.514 ± 0.048
10,GIIRC,0.209 ± 0.5
11,RGLRMYERGSVTWSFDFMEG,5.44 ± 0.077
12,LYLLM,-0.358 ± 1
13,CIPRRGY,0.713 ± 0.74
14,MLLLVNSRLWLASIPIKYRA,-0.332 ± 0.44
15,ATVYMLHALVSDGCQLGD,0.399 ± 0.31
16,MYRCQSSVFIFGSYSPILCH,-0.303 ± 0.63
17,TQRHATENLKFTTWAYKSRE,0.994 ± 0.16
18,LQRYRFSNACI,inactive
19,FMGGFG,0.079 ± 0.63
20,TWKYDRMVGKIVGLALRVVT,0.643 ± 0.43
21,TNVGCRVLCTLRSVTPDVVR,0.646 ± 0.62
22,SIEYRDLKVCSLLYPVPQSG,0.127 ± 0.46
23,GFSVRVGVMTFDSFDWRVLF,1.72 ± 0.15
24,WEGLSGTSLVLSQCFAPFSS,2.17 ± 0.12
25,EWVNVASVYGDSKKRYGWNA,-0.239 ± 0.61

row,Substance,amyloid nucleation score
1,RFSLRRNCAMAQWLISATCS,0.37 ± 0.3
2,RHYLRRCEEDNCHPKYFVRY,-0.439 ± 0.76
3,LRLGRLPFMRSISVTCKNEL,1.91 ± 0.32
4,PLDTYLWAYLLPWWSLCTSI,inactive
5,ALCQYISSSYMWYSVMCELI,inactive
6,YYQGRPWSSVLSFYCFHSYS,inactive
7,YNCGTQRYLVFNNESNSFFS,3.18 ± 0.071
8,AVYSGHSYVKMSWVSGGRYW,0.747 ± 0.43
9,SSCISHGGRK,-0.546 ± 0.45
10,VWTIPRS,0.012 ± 0.5
11,LGTFKGKSEGPVV,0.616 ± 0.64
12,ERTVKETFSTGNSYEGTGRR,-0.468 ± 0.53
13,RLFRAFNLCYAAIRVGASPQ,0.287 ± 0.26
14,LVQLKRCQMSLWMRHYHRDE,5.951 ± 0.055
15,SELWYVPLANVE,0.242 ± 0.5
16,FMDWKLYSDPWAKF,-0.639 ± 0.37
17,GLNYPAIWEARLKG,0.703 ± 0.29
18,GFFLSNFSVFYKCIRSVVDT,-1.81 ± 0.62
19,KWDIIYNNDVGNLCVLVSN,-0.817 ± 1
20,DCHSMQFVVSFNT,-0.705 ± 1.1
21,ESLEADN,inactive
22,DYNKLVAWALCLCFFRFRRN,0.762 ± 0.81
23,IQQFVKVFVGDLNLTVDRNM,7.554 ± 0.06
24,DFMIKSISVLFTVSISSNRV,-1.69 ± 0.73
25,GALKSMLQVFQEGLLHDWSI,-0.936 ± 0.31

row,Substance,amyloid nucleation score
1,HNIIWFSLTWLRYMSVVVIC,inactive
2,TGVYRWSEMSMVMFFFHVEC,-0.226 ± 0.63
3,TYDLGCDYPIVPYVNFLCM,6.59 ± 0.072
4,RFNFHTSD,-0.959 ± 1.1
5,AVVLLLRTAGVVIGHLVLRH,-0.016 ± 0.29
6,NQFEGLKMRSTKLGAGGS,-0.293 ± 0.64
7,ASMLWLLLDELLKWNDGVNN,2.04 ± 0.099
8,LPQVPRVFRS,-0.06 ± 1.1
9,NSQTYTGCAVGYVLVNVMGL,6.474 ± 0.033
10,LLMVFHTTKY,6.665 ± 0.026
11,VHPGTR,4.08 ± 0.065
12,NNFEI,-0.672 ± 0.6
13,ETEGKGRWKD,inactive
14,GVIKWKRQETLNHSWGSESE,5.24 ± 0.072
15,FRTSYRSCCVNTYREVVVYA,-0.501 ± 0.45
16,RHVRMISHELNEDTCYTCIL,-0.536 ± 1.1
17,GMFIMQNGLFYRQSLVAWW,-0.995 ± 0.45
18,LLVKTNYVCGALTNGRMNGT,2.12 ± 0.081
19,SHSGIFSDAAHDVLGGGEEK,0.503 ± 0.8
20,LSVAFRVW,-0.55 ± 0.49
21,CNSHM,2.9 ± 0.072
22,MIVLKRSPSLCSIS,-0.007 ± 0.34
23,MSRSSPMIHFETCWHASAGF,3.82 ± 0.044
24,SISLCGVGVRWESVTAGNVC,0.51 ± 0.36
25,QWCYSAVYSMLVSKRL,2.68 ± 0.078

row,Substance,amyloid nucleation score
1,VCFVICDSPSFYV,7.901 ± 0.044
2,TWGFYAVTCLQLLPRFVKHV,-0.374 ± 0.33
3,LWLMVCMMYM,2.09 ± 0.15
4,NVSIMFRFFVYLC,4.16 ± 0.066
5,TSWNWSFFWCTYYLFTQVRG,-0.772 ± 0.42
6,PMVYRYKGRHIN,-1.27 ± 0.62
7,FKGDVHANHFICQMLFAPFR,8.596 ± 0.057
8,SGAYSDGWYRQHFMVQL,inactive
9,MRLHSLGRCGQWSCDVGRER,0.918 ± 0.35
10,MRWLYFPLF,-0.801 ± 0.56
11,NDKFCATDESVRSRSI,0.042 ± 0.37
12,ASRWHLIAESLSLSAVLNSF,inactive
13,DMGNDLRDRVRGFSALMLWR,inactive
14,LFIVSDKTFYKGTGCSDFLV,-1.28 ± 1
15,HIEFDRWAPHLVDLPTGPMK,inactive
16,GLLNMCINCGRLFASPGISG,-0.285 ± 0.35
17,NGCYQGYKCVLRQLAFKSSG,-0.17 ± 0.5
18,FQDVDVLGSWPG,0.387 ± 0.53
19,NFMNSP,-0.33 ± 1.1
20,QVSSTST,0.592 ± 0.35
21,ELVLF,-0.454 ± 0.42
22,CGSSMEYVGPLVYSAGAAEV,-0.097 ± 1.1
23,YVMFRC,1.31 ± 0.32
24,DSIGVVFEVKTGKARASGVV,0.171 ± 0.49
25,YIAIEYLFSFRGFRGTGVMG,0.034 ± 0.63

row,Substance,amyloid nucleation score
1,RWVWDGPLYMLFSCMCYIKR,6.484 ± 0.064
2,MWRAQFIYLRMQLVVACVGI,0.394 ± 0.33
3,HDYVRLPEWFLSMGDHMYMC,-0.356 ± 1.1
4,KAPRTIYPVVLQPAS,-0.484 ± 0.33
5,LLALSFLTVVFEFCLNSMMG,-1.28 ± 0.62
6,QRLYFMIMSQPAFGTFRGIY,-0.95 ± 1.1
7,DVKWA,1.1 ± 0.21
8,SVAVPWGFTSYSCVRLGGFN,3.06 ± 0.14
9,VQLWYILITKMVR,-1.02 ± 1
10,NTWDMLYGIWFSSLLQALLN,inactive
11,SGSAESFLT,0.195 ± 0.53
12,YFDTYLMTSRGCSIFMAQFR,1.67 ± 0.28
13,LILWRA,0.456 ± 0.39
14,RHMLYVGMSHNPRLGPSSLG,0.511 ± 0.38
15,MSGFTFKTLGGISHYDFQLD,inactive
16,NFWYCYTLSDNNYFF,7.41 ± 0.038
17,LWGHLNHQWVCVSVMWVYLS,3.64 ± 0.081
18,FAYKNRNM,-0.307 ± 0.41
19,NIDSWVKGFVKY,-0.558 ± 1
20,LDCNDYRDVCVSGFYVCIEG,-0.597 ± 0.27
21,RSTDLVSIFRMDLAIRINVL,0.815 ± 0.13
22,GPSMCFGEFKVYAEVSWSQA,0.095 ± 0.34
